Laboratory results published in the supplement of paper PMC7877785.
± gives the uncertainty stated by the source.

Test: self-splicing fitness, log relative to wild type (ln ratio); higher = more splicing; Tetrahymena group I intron in knt gene, E. coli kanamycin selection, DiMSum; sequences stand for … in CUCUCU…GGAGGGAAAAGUUAUCAGGCAUGCACCUGGUAGCUAGUCUUUAAACCAAUAGAUUGCAUCGGUUUAAAAGGCAAGACCGUCAAAUUGCGGGAAAGGGGUCAACAGCCGUUCAGUACCAAGUCUCAGGGGAAACUUUGAGAUGGCCUUGCAAAGGGUAUGGUAAUAAGCUGACGGACAUGGUCCUAACCACGCAGCCAAGUCCUAAGUCAACAGAUCUUCUGUUGAUAUGGAUGCAGUUCACAGACUAAAUGUCGGUCGGGGAAGAUGUAUUCUUCUCAUAAGAUAUAGUCGGACCUCUCCUUAAUGGGAGCUAGCGGAUGAAGUGAUGCAACACUGGAGCCGCUGGGAACUAAUUUGUAUGCGAAAGUAUAUUGAUUAGUUUUGGAGUACUCGUGGUCG
Method in brief: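 Fitness was computed with DiMSum as the error-weighted combination of replicate fold changes, kanamycin versus none, each normalised to wild type. The library randomised all eight intron nucleotides of the P1ex region, with the intron placed in the knt kanamycin-resistance gene on pET-22b(+) in E. coli BL21(DE3). Six replicate transformations were grown overnight at 37°C or 30°C on LB agar with or without 25 μg/mL kanamycin, plus 100 μg/mL carbenicillin, 50 μM IPTG and 0.2% rhamnose. Pooled colonies were amplicon-sequenced on an Illumina HiSeq 2500.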

Sequence	self-splicing fitness (ln) (30 °C)	self-splicing fitness (ln) (37 °C)
AUCAAGCAAUAUUACGAUGA	-0.483 ± 0.076	-0.19 ± 0.086
UUAUAGCAAUAUUACGGACG	-1.25 ± 0.38	-0.128 ± 0.34
UUACAGCAAUAUUACGGUUC	-1.97 ± 0.1	-1.32 ± 0.11
UUCGAGCAAUAUUACGUACU	-2.87 ± 0.42	-2.01 ± 0.36
CCAAAGCAAUAUUACGCAGU	-3.71 ± 0.21	-1.64 ± 0.16
CGUGAGCAAUAUUACGAUAA	-4.37 ± 0.39	-2.68 ± 0.23
AAACAGCAAUAUUACGCCGU	-2.54 ± 0.13	-1.96 ± 0.11
UUAGAGCAAUAUUACGGCAU	-2.51 ± 0.28	-1.16 ± 0.23
ACCCAGCAAUAUUACGACAA	-1.66 ± 0.1	-1.09 ± 0.1
CGUAAGCAAUAUUACGGUCC	-2.31 ± 0.18	-2.18 ± 0.24
CUAUAGCAAUAUUACGCCUG	-0.141 ± 0.15	-0.439 ± 0.14
GCGCAGCAAUAUUACGACUG	-1.91 ± 0.12	-1.98 ± 0.23
GACUAGCAAUAUUACGGCGG	-3.72 ± 0.21	-2.14 ± 0.13
UAUUAGCAAUAUUACGCCAG	-1.17 ± 0.28	
UCAGAGCAAUAUUACGCGAC	-3.71 ± 0.42	
UCCCAGCAAUAUUACGCGAG	-3.41 ± 0.14	-2.91 ± 0.2
UUCUAGCAAUAUUACGCCGG		-2.05 ± 0.37
UUGAAGCAAUAUUACGGCCA	0.0822 ± 0.12	-0.046 ± 0.13
CGCCAGCAAUAUUACGCGUU	-2.03 ± 0.12	-2.31 ± 0.19
AUUUAGCAAUAUUACGGCCC	-1.06 ± 0.2	-0.289 ± 0.3
UAGGAGCAAUAUUACGGUGU	-3.4 ± 0.3	-2.9 ± 0.43
GAUCAGCAAUAUUACGAAAU	-0.667 ± 0.081	0.175 ± 0.1
UUGAAGCAAUAUUACGGCAU	-0.14 ± 0.06	1.08 ± 0.08
CAGGAGCAAUAUUACGUCAA	-3.36 ± 0.2	-3.44 ± 0.33

Sequence	self-splicing fitness (ln) (30 °C)	self-splicing fitness (ln) (37 °C)
UCGCAGCAAUAUUACGCUUA	-1.67 ± 0.12	-0.94 ± 0.09
CCAUAGCAAUAUUACGCCUA	-2.85 ± 0.27	-2.93 ± 0.35
UUCGAGCAAUAUUACGGGAU	-3.04 ± 0.25	-2.05 ± 0.19
GACAAGCAAUAUUACGCCAA	-2.03 ± 0.14	-1.61 ± 0.12
CGACAGCAAUAUUACGUCGG	-1.83 ± 0.11	-1.44 ± 0.15
ACCAAGCAAUAUUACGGCCA	-0.654 ± 0.099	0.134 ± 0.12
CUGCAGCAAUAUUACGGAAC	-3.88 ± 0.27	-1.81 ± 0.27
UCGUAGCAAUAUUACGCGAU	-3.29 ± 0.24	-2.36 ± 0.28
AAGAAGCAAUAUUACGUCAA	-1.78 ± 0.11	-0.843 ± 0.088
GUAGAGCAAUAUUACGCGGA	-1.47 ± 0.14	-0.734 ± 0.12
GAUAAGCAAUAUUACGAGUA	-1.84 ± 0.15	-1.45 ± 0.14
AUAGAGCAAUAUUACGGGCA	-2.19 ± 0.097	-1.28 ± 0.11
UCCCAGCAAUAUUACGGUAC	-3.29 ± 0.2	-1.71 ± 0.17
CACAAGCAAUAUUACGGUCC	-2.99 ± 0.32	-1.99 ± 0.27
CCUCAGCAAUAUUACGCCGC	-3.72 ± 0.37	
GCGCAGCAAUAUUACGUAUA	-1.31 ± 0.06	-1.05 ± 0.081
ACCUAGCAAUAUUACGAAUA	-2.75 ± 0.15	-2.94 ± 0.18
AACCAGCAAUAUUACGUUAG	-3.68 ± 0.11	-2.44 ± 0.11
GAAAAGCAAUAUUACGACCG	-0.942 ± 0.14	-0.33 ± 0.17
AACUAGCAAUAUUACGUGUU	-2.68 ± 0.11	-2.45 ± 0.16
CGUUAGCAAUAUUACGAAUG	-1.92 ± 0.15	0.491 ± 0.12
GAACAGCAAUAUUACGCGAC	-2.3 ± 0.14	-2.36 ± 0.18
AGGAAGCAAUAUUACGGAAA	-2.92 ± 0.23	-2.26 ± 0.18
UAUAAGCAAUAUUACGGUUU	-2.58 ± 0.11	-1.24 ± 0.099
